Starred links: 1 amine or outer side, 2 acyl side, 3 side chain; linkers in the order of their positions; H or OH if unused. Non-standard residues stand in square brackets, D forms with d. Primed or numbered codes have the meaning given here. *: point of attachment. NPeg9 = PEG amine from Pra click product: 32-amino-3,6,9,12,15,18,21,24,27,30-decaoxadotriacontyl, NCCOCCOCCOCCOCCOCCOCCOCCOCCOCCOCC*; Pra′ = its azide, alkyne or alkene has reacted where a group follows in round brackets; Oic = O=C(O)[C@@H]1C[C@@H]2CCCC[C@@H]2N1; Phe(4-Cl) = N[C@@H](Cc1ccc(Cl)cc1)C(=O)O; γGlu = O=C(O)[C@H](CCC(=O)[*:2])N[*:1]; d1Nal = N[C@H](Cc1cccc2ccccc12)C(=O)O; NMeR = CN[C@@H](CCCNC(=N)N)C(=O)O; Tridecanoyl = CCCCCCCCCCCCC(=O)*; hArg = N=C(N)NCCCC[C@H](N)C(=O)O; Cha = N[C@@H](CC1CCCCC1)C(=O)O; NMeL = CN[C@@H](CC(C)C)C(=O)O; pGlu = O=C1CC[C@@H](C(=O)O)N1; Nle = CCCC[C@H](N)C(=O)O; Orn = NCCC[C@H](N)C(=O)O; Aib = CC(C)(N)C(=O)O; Mpa = O=C(O)CCS

Consider seven molecules from patent publication US10941182 (Amgen, dated 2021).

Holding throughout (experiment): cell-based or functional assay
The target in assay [1] is T1, rat APJ receptor (rat, UniProt Q9JHG3 1-377).
T1 sequence (looked up): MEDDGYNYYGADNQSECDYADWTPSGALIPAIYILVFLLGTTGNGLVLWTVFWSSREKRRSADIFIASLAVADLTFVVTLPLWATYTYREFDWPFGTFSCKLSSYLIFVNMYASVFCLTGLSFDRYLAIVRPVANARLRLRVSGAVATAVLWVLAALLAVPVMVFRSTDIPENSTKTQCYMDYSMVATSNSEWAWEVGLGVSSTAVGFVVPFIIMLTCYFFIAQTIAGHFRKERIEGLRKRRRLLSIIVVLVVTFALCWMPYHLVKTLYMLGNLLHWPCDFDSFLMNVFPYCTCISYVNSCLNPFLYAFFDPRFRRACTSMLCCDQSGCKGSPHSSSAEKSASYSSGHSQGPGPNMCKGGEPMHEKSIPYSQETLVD

Assay [2] deals with T2, human APJ receptor (human, UniProt P35414 1-380).
T2 sequence (looked up): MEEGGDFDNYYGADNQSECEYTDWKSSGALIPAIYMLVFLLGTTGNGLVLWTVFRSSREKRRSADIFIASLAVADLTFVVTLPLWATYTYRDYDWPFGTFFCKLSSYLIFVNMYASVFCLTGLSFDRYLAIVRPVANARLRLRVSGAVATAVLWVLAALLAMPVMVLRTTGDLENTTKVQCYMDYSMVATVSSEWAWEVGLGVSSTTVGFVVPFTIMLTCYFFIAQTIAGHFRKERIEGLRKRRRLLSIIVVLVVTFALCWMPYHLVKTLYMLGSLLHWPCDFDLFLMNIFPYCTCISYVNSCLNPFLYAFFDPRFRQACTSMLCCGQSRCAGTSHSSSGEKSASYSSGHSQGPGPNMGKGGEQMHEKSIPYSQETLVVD

The target of assay [3] is T3, human APJ receptor (human, UniProt P35414 1-380).
T3 sequence (looked up): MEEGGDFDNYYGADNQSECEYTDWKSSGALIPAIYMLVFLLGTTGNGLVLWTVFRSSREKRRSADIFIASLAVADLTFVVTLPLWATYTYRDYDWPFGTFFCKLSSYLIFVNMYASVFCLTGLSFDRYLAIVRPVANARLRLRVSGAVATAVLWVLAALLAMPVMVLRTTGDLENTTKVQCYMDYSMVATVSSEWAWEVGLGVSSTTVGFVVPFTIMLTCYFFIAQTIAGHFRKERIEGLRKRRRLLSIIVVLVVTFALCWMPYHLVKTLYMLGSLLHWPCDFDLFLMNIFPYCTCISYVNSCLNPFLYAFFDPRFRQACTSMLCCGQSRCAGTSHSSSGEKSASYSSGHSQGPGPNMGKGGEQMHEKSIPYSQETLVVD
This is another data set of the same source.

Assay [4] concerns the target T4, rat APJ receptor (rat, UniProt Q9JHG3 1-377).
T4 sequence (looked up): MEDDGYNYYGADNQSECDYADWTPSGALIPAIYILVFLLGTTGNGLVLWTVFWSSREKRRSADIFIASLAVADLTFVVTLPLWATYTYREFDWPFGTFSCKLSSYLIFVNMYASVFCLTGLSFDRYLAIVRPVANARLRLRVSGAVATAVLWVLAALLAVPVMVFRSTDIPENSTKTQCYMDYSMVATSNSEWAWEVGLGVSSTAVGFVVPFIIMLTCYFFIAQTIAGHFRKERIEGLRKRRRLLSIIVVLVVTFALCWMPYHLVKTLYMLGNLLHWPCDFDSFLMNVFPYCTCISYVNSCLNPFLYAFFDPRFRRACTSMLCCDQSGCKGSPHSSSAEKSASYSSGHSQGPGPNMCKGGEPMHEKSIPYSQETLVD
This is another data set of the same source.

B1: apelin polypeptide SEQ ID NO: 58 (peptide)
peptide: Ac-[Orn]F[hArg][hArg]Q[hArg][Oic][dR][Cha]SHKG[Oic][Nle][Phe(4-Cl)]-OH
SMILES: CCCC[C@H](NC(=O)[C@@H]1C[C@@H]2CCCC[C@@H]2N1C(=O)CNC(=O)[C@H](CCCCN)NC(=O)[C@H](Cc1c[nH]cn1)NC(=O)[C@H](CO)NC(=O)[C@H](CC1CCCCC1)NC(=O)[C@@H](CCCNC(=N)N)NC(=O)[C@@H]1C[C@@H]2CCCC[C@@H]2N1C(=O)[C@H](CCCCNC(=N)N)NC(=O)[C@H](CCC(N)=O)NC(=O)[C@H](CCCCNC(=N)N)NC(=O)[C@H](CCCCNC(=N)N)NC(=O)[C@H](Cc1ccccc1)NC(=O)[C@H](CCCN)NC(C)=O)C(=O)N[C@@H](Cc1ccc(Cl)cc1)C(=O)O
As for B1, the “EC50 Rat APJ Receptor” value with rat APJ receptor [1] is 5.32 nM. In the assay with human APJ receptor [2], the “EC50 Human APJ Receptor” value is 1.17 nM.
Taken in the same sequence, the figures for {20K mPEGacetamide}-[Mpa]RQRP[hArg][Cha]SHKG[Oic][Nle]P[Phe(4-Cl)]-OH (numbers in words are those of the source; also: 20 kDa PEG conjugate) [apelin polypeptide SEQ ID NO: 100] were 45.4 nM and 8.06 nM.

B2: modified apelin polypeptide SEQ ID NO: 507 (peptide)
peptide: XXQRPRLSHKGPXPF
modifications: {TDA} [Aeea] [Aeea] Q R P [NMeArg] L S H K G P [Nle] P [4-Cl-F] {COOH}: N-terminal tridecanoyl (TDA)-Aeea-Aeea; NMeArg, Nle, 4-Cl-F non-canonical; free C-terminal acid
B2: the “EC50 Human APJ Receptor (µM), GTPγS assay” value with human APJ receptor [3] is 7.95e-05 µM. For the same molecule, the “EC50 Rat APJ Receptor (µM), GTPγS assay” value with rat APJ receptor [4] amounted to 0.000245 µM.

B3: modified apelin polypeptide SEQ ID NO: 532 (peptide)
peptide: Tridecanoyl-[γGlu][dQ]RP[NMeR][Cha]SHKG[Oic][Nle][Aib][Phe(4-Cl)]-OH
SMILES: CCCCCCCCCCCCC(=O)N[C@@H](CCC(=O)N[C@H](CCC(N)=O)C(=O)N[C@@H](CCCNC(=N)N)C(=O)N1CCC[C@H]1C(=O)N(C)[C@@H](CCCNC(=N)N)C(=O)N[C@@H](CC1CCCCC1)C(=O)N[C@@H](CO)C(=O)N[C@@H](Cc1c[nH]cn1)C(=O)N[C@@H](CCCCN)C(=O)NCC(=O)N1[C@H](C(=O)N[C@@H](CCCC)C(=O)NC(C)(C)C(=O)N[C@@H](Cc2ccc(Cl)cc2)C(=O)O)C[C@@H]2CCCC[C@@H]21)C(=O)O
With B3, the “EC50 Rat APJ Receptor (µM), GTPγS assay” value with rat APJ receptor [4] is 0.00299 µM.
Turning to [pGlu]RP[hArg][Cha][Pra′](NPeg9)HKG[Oic][Nle]P[Phe(4-Cl)]-OH [apelin polypeptide SEQ ID NO: 96], the “EC50 Rat APJ Receptor” value in the assay with rat APJ receptor [1] came out at 14.6 nM. Also, the “EC50 Human APJ Receptor” value with human APJ receptor [2] stood at 2.02 nM.

B4: apelin polypeptide SEQ ID NO: 59 (peptide)
peptide: Ac-[Orn]F[hArg][hArg]Q[hArg]P[dR][NMeL]SHKG[Oic][Nle][Phe(4-Cl)]-OH
SMILES: CCCC[C@H](NC(=O)[C@@H]1C[C@@H]2CCCC[C@@H]2N1C(=O)CNC(=O)[C@H](CCCCN)NC(=O)[C@H](Cc1c[nH]cn1)NC(=O)[C@H](CO)NC(=O)[C@H](CC(C)C)N(C)C(=O)[C@@H](CCCNC(=N)N)NC(=O)[C@@H]1CCCN1C(=O)[C@H](CCCCNC(=N)N)NC(=O)[C@H](CCC(N)=O)NC(=O)[C@H](CCCCNC(=N)N)NC(=O)[C@H](CCCCNC(=N)N)NC(=O)[C@H](Cc1ccccc1)NC(=O)[C@H](CCCN)NC(C)=O)C(=O)N[C@@H](Cc1ccc(Cl)cc1)C(=O)O
Regarding B4, in the assay with rat APJ receptor [1], the “EC50 Rat APJ Receptor” value turned out to be 4.57 nM. Besides, the “EC50 Human APJ Receptor” value with human APJ receptor [2] was determined as 2.08 nM.

B5: apelin polypeptide SEQ ID NO: 54 (peptide)
peptide: Ac-Q[dR]P[NMeR][Cha]SHKG[Oic][Nle][d1Nal]-OH
SMILES: CCCC[C@H](NC(=O)[C@@H]1C[C@@H]2CCCC[C@@H]2N1C(=O)CNC(=O)[C@H](CCCCN)NC(=O)[C@H](Cc1c[nH]cn1)NC(=O)[C@H](CO)NC(=O)[C@H](CC1CCCCC1)NC(=O)[C@H](CCCNC(=N)N)N(C)C(=O)[C@@H]1CCCN1C(=O)[C@@H](CCCNC(=N)N)NC(=O)[C@H](CCC(N)=O)NC(C)=O)C(=O)N[C@H](Cc1cccc2ccccc12)C(=O)O
Consider B5, for which the “EC50 Rat APJ Receptor” value in the assay with rat APJ receptor [1] was determined as 312 nM. The “EC50 Human APJ Receptor” value in the assay with human APJ receptor [2] was found to be 30.1 nM.
